Experimental data from patent publication US20160200781.

Experiments:
[1] = tested on: ZF11xHunt-Kox-1 (synthetic); experiment: cell_activity
[2] = tested on: ZF6xHunt-Kox-1 (synthetic); experiment: cell_activity; conditions: htt mRNA repression up to 2.5-fold (60%); protein up to 2-fold; STHdh Q111 cells, 20 days
ZF6xHunt-Kox-1 (synthetic), sequence (chain, as listed by the source): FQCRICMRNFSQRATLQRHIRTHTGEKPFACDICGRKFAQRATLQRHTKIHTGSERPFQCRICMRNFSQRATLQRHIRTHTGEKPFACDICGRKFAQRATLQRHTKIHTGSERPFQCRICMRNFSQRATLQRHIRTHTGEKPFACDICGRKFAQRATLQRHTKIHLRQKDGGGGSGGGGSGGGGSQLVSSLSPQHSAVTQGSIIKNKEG

ZF11xHunt-Kox-1 (synthetic), sequence (chain, as listed by the source): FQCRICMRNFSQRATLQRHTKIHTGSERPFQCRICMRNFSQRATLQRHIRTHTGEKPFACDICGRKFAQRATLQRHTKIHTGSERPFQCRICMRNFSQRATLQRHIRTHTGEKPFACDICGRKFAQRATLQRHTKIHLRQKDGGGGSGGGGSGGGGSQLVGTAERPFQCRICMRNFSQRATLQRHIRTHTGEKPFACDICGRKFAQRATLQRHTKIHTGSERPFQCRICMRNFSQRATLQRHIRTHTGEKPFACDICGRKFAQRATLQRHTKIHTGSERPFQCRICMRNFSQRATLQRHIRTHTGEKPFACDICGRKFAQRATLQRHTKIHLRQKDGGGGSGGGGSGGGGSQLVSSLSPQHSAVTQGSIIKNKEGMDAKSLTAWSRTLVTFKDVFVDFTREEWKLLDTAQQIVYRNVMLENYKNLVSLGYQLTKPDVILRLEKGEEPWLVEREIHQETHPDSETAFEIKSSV

Substance | activity ([1]; almost 80% mRNA reduction and 95% protein reduction, STHdh Q111 cells, 20 days) | activity [2] | activity ([1]; mean mutant htt mRNA reduction in R6/2 striatum at 6 weeks, AAV2/1 delivery)
mutant htt Q111 chromosomal locus | 80 % reduction | < 2.5 fold | –
R6/2 mutant htt transgene | – | – | > 45 % reduction
